For data set [1], the system named is T1, GmPBS1SCS derivative of GmPBS1c.
T1 sequence: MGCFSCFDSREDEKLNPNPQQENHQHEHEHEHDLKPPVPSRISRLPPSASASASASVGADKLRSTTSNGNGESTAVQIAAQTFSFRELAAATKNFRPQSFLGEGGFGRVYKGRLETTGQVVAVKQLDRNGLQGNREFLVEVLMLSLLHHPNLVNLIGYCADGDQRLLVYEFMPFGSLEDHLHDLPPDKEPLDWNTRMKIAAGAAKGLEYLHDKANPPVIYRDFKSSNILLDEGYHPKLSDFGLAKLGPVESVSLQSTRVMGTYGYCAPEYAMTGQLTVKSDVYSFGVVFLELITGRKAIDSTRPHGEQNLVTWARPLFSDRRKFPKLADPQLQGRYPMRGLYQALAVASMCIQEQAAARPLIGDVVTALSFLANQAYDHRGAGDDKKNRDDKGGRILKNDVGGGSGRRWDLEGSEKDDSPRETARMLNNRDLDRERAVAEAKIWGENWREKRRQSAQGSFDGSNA

Data set [2] concerns T2, Soybean mosaic virus (SMV) PBS1 decoy protein.
T2 sequence: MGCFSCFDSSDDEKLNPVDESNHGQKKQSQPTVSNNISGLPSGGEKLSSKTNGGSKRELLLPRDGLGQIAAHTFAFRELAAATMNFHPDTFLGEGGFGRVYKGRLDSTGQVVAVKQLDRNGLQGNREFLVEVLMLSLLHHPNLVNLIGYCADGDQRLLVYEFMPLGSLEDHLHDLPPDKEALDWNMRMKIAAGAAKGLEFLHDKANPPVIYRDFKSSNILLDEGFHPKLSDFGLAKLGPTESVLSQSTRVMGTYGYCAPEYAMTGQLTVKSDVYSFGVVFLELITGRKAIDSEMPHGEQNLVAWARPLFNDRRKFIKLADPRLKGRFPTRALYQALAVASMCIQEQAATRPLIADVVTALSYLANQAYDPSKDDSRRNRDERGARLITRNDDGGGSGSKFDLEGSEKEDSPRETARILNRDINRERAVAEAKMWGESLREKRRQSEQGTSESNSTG

Data set [3] deals with T3, GmPBS1SCS derivative of GmPBS1b.
T3 sequence: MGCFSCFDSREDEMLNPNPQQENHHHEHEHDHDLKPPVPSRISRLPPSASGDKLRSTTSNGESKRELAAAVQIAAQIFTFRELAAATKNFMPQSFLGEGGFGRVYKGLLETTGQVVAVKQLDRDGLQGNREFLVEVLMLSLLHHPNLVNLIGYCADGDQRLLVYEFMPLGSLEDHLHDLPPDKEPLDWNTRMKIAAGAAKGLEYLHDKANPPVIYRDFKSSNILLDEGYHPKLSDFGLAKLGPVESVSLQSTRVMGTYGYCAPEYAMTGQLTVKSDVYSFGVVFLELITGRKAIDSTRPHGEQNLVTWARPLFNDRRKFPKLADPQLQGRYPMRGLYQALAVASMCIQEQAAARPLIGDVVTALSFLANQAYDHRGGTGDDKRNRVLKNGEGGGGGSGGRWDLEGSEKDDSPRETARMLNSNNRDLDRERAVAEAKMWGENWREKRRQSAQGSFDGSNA

Data set [4] concerns T4, Wheat streak mosaic virus (WSMV) PBS1 decoy protein.
T4 sequence: T2 sequence with E241Q, S242Y, V243C, L244V, S245Y, Q246E

Data set [5] concerns T5, GmPBS1SCS derivative of GmPBS1a.
T5 sequence: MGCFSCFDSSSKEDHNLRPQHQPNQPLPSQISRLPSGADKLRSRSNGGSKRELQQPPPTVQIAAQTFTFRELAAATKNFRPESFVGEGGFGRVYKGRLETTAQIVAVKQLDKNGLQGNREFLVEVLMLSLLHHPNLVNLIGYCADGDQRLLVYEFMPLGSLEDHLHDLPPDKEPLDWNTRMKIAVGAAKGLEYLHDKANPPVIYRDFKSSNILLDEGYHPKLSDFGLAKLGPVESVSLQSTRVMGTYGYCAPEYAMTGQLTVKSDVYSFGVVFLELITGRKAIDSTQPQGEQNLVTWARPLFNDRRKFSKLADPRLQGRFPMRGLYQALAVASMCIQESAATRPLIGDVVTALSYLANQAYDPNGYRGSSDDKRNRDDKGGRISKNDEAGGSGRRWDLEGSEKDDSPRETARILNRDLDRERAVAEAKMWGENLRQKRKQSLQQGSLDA

The record followed here is US20190256864A1 (INDIANA UNIVERSITY RESEARCH AND TECHNOLOGY, published 2019).

Positions count from the first letter of the chain named.

Soybean mosaic virus (SMV) NIa protease: the “cleavage of the substrate (transient coexpression in N. benthamiana)” value in data set [1], in data set [3] and in data set [5] was “Transient coexpression of the modified GmPBS1 constructs along with the SMV NIa protease in N. benthamiana resulted in NIa-mediated cleavage of GmPBS1SCS” each time. The “cleavage of the substrate (immunoblot after transient co-expression in N. benthamiana)” value in data set [2] is reported as “demonstrating cleavage of the decoy PBS1 proteins only by the matching proteases”. Besides, the “cleavage of the substrate (immunoblot after transient co-expression in N. benthamiana); not cleaved by the non-matching protease” value in data set [4] was “demonstrating cleavage of the decoy PBS1 proteins only by the matching proteases”.
